This data set can be described thus: yeast display, Sf9 membrane polyspecificity reagent, FACS + sequencing; frameworks hold sequencing errors. The procedure, abridged:
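Galactose-induced (36–48 hours) yeast carrying a synthetic nanobody display library were exposed to 10% biotinylated, detergent-solubilized Sf9 membrane reagent at 4 °C for 1 hour. FACS followed streptavidin microbead enrichment, using low and high (top ~1%) gates for expression (anti-HA) and reagent binding (streptavidin). Colony PCR, MiSeq 2 × 250 sequencing and CDR-length filtering followed. Labels for polyreactivity reflect the gate of origin.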
For the sequence “QVQLVESGGGLVQAGGSLRLSCAASGSIFSDNAMGWYRQAPGKERELVAAISWIGDSTDYADSVKGRFTISRDNAKNTVYLQMNSLKPEDTAVYYCAGDAKVVSPRYRANDIGMYYWGQGTQVTVSS”, the “polyreactivity (PSR sort gate)” value is “low polyreactivity”. The value for “QVQLVESGGGLVQAGGSLRLSCAASGSIFSEYAMGWYRQAPGKERELVAAINDGGGSTYYADSVKGRFTISRDNAKNTVYLQMNSLKPEDTAVYYCAAETVRWWWLYDYWGQGTQVTVSS” was “high polyreactivity”; that for “QVQLVESGGGLVQAGGSLRLSCAASGSIFSFNAMGRSRQAPGKERELVASITSGGSTNYADSVKGRFTISRDNAKNTVYLQMNSLKPEDTEVYYCNARFPYLSRWLVRGLASYDYWGQGTQVTVSS” was “low polyreactivity”. Under “QVQLVESGGGLVQAGGSLRLSCAASGSIFSFNVMGWYRQAPGKEREMVATITGGGSTNYADSVKGRFTISRDNAKNTVYLQMNSLKPEDTAVYYCNKRNRWTPFYTYDYWGQGTQVTVSS” stands “low polyreactivity”; under “QVQLVESGGGLVQAGGSLRLSCAASGSIFSFYAMGSYRQAPGKERELVAAISWSGGSTYYADSVKGRFTISRDNAKNTVYLLMNSLKPEDTAVYYCAREKAVSYYGYDHWGQGTQVTVSS”, “low polyreactivity”. The value for “QVQLVESGGGLVQAGGSLRLSCAASGSIFSFYAMGWYRQAPGKEREFVAAITISDDSTYYADSVKGRFTISRDNAKNTVYLQMNSLKPEDTAVYYCNARYLSWYFKYLYDYWGQGTQVTVSS” was “low polyreactivity”; that for “QVQLVESGGGLVQAGGSLRLSCAASGSIFSGNAMGWYRQAPGKKGVGCRYYSCWFYDYADSVKGRFTISRDNAKNTVYLQMNSLKPEDTAVYYCAKSNYVRSEFNYWGQGTQVTVSS” was “low polyreactivity”. Turning to “QVQLVESGGGLVQAGGSLRLSCAASGSIFSGNTMGWYRQAPGKERELVAAISGRGSNTYYADSVKGRFTISRDNAKNTVYLQMNSLKPEDTAVYYCAAPWVVRRTAYDYWGQGTQVTVSS”, the “polyreactivity (PSR sort gate)” value is reported as “high polyreactivity”. Under “QVQLVESGGGLVQAGGSLRLSCAASGSIFSGYAMGWYRQAPGKERELVAAISGSGGSTFYADSVKGRFTISRDNAKNTVYLQMNSLKPEDTAVYYCAARRIAPYGRYDYWGQGTQVTVSS” stands “low polyreactivity”. “QVQLVESGGGLVQAGGSLRLSCAASGSIFSGYAMGWYRQAPGKERELVAAITWRAASTYYADSVKGRFTISRDNAKNTVYLQMNSLKPEDTAVYYCAKEGGPKPAFYYWGQGTQVTVSS”: the “polyreactivity (PSR sort gate)” value was “low polyreactivity”. Under “QVQLVESGGGLVQAGGSLRLSCAASGSIFSGYAMGWYRQAPGKESELVAAISGSGGSTFYADSVKGRFTISRDNAKNTVYLQMISLKPEDTAVYYCAARRIAPFGRYDYWGQGTQVTVSS” stands “low polyreactivity”; under “QVQLVESGGGLVQAGGSLRLSCAASGSIFSHKVMGWYRQAPGKERELVAAITYRGGSTYYADSVKGRFTISRDNAKNTVYLQMNSRKPEDTAVYYCAALNEVSTYHGFDYWGQGTQVTVSS”, “low polyreactivity”. The value for “QVQLVESGGGLVQAGGSLRLSCAASGSIFSIYAMGWYRQAPGKERELVAAISWNGGSTYYADSVKGRFTISRDNAKNTVYLQMNSLKPEDTAVYYCAVDEGPTKVRFGYWGQGTQVTVSS” was “high polyreactivity”; that for “QVQLVESGGGLVQAGGSLRLSCAASGSIFSLYAMGWYRPAPGKERELVAAISDGTGTNYADSVKGRFTISRDNAKNTVYLQMNSLKPVDTAVYYCATETYWYLPYYGDVEGNYWGQGTQVTVSS” was “low polyreactivity”.

Consider “QVQLVESGGGLVQAGGSLRLSCAASGSIFSLYAMGWYRPAPGKERELVAGISRSGGSTYYADSVKGRFTISRDNAKNTVYLQMNSLKPEDTAVYYCAARVKVRDFKGYYWGQGTQVTVSS”, for which the “polyreactivity (PSR sort gate)” value is given as “high polyreactivity”. The value for “QVQLVESGGGLVQAGGSLRLSCAASGSIFSNAMGWYRQAPGKERELVAAITGRGGRTYYADSVKGRFTISRDNAKNTVFLQMNSLKPEDTAVDYCARDSPWSSRYRYRAFDYWGQGTQVTVSS” was “high polyreactivity”; that for “QVQLVESGGGLVQAGGSLRLSCAASGSIFSNYAMGWYRQAPGKERELVAAITLSSGGTYYADSVKGRFTISRDNAKNTVYFQMNSLKPEDTAVYYCAAQYKYFIHRYYYWGQGTQVTVSS” was “high polyreactivity”; that for “QVQLVESGGGLVQAGGSLRLSCAASGSIFSNYAMGWYRQAPGKERELVAAITLSSGGTYYADSVKGRFTISRDNAKNTVYLQMNSLKPEDTAVYYCAAQYKYFKHRYYYWGQGTQVTVSS” was “high polyreactivity”. In the case of “QVQLVESGGGLVQAGGSLRLSCAASGSIFSQYAMGWYRQAPGKERELVAAISSSGDSTNYADSVKGRFTISRDNAKNTVYLQMNSLKPEDTAVYYCNADTYWYRDSRYDYWGQGTQVTVSS”, the “polyreactivity (PSR sort gate)” value was “low polyreactivity”. Under “QVQLVESGGGLVQAGGSLRLSCAASGSIFSQYLMVWYRQAPGKERELVAAISWSGGHTYYADSVKGRFTISRDNAKNTVYLQMNSLKPEDTAVYYCATVPRKTPGNAELDYWGHGTQVTVSS” stands “high polyreactivity”; under “QVQLVESGGGLVQAGGSLRLSCAASGSIFSQYVMGWYRQAPGKERELVAAISSGGITYYADSVKGRFTISRDNAKNTVYLQMNSLKPEDTAVYYCNKTSWYQYGYWGQGTQVTVSS”, “low polyreactivity”. Take “QVQLVESGGGLVQAGGSLRLSCAASGSIFSRYAMGWYRQAPGKERELVAAITSSGGRTYYADSVKGRFTISRDNAKNTVYLQMNSLKPEDTAVYYCAADVRTPSEGYDYWGQGTQGTVSS”: the “polyreactivity (PSR sort gate)” value was “high polyreactivity”. Under “QVQLVESGGGLVQAGGSLRLSCAASGSIFSRYAMGWYRQAPGKERELVAGISQRGGSTNYADSVKGRFTISRDNAKNTVYLQMNSLKPEDTAVYYCAARRITVWGYNPAYGYRFDYWGQGTQVTVSS” stands “high polyreactivity”; under “QVQLVESGGGLVQAGGSLRLSCAASGSIFSSNAMGWSRQAPGKERELVASIRRGGSTYYADSVKGRFTISRDNAKNTVYLQMNSLKPEDTAVYDCARRYVPWYATYDHWGQGTQVTVSS”, “high polyreactivity”. Take “QVQLVESGGGLVQAGGSLRLSCAASGSIFSSNVMGWYRQAPGKERELVAAITRRGSTTYYADSVKGRFTISRDNAKNTVYLQMNSLKPEDTAVYYCATKAKYGRQYLMDYWGQGTQVTVSS”: the “polyreactivity (PSR sort gate)” value was “high polyreactivity”.

“QVQLVESGGGLVQAGGSLRLSCAASGSIFSSYAMGGYRQAPGKEWELVAAISRRGGSTYYADSVKGRFTISRDNAKNTVYLQMNSLKPEDTAVYYCNADSAARKGWPIYGYWGQGTQVTVSS”: the “polyreactivity (PSR sort gate)” value was “high polyreactivity”. The value for “QVQLVESGGGLVQAGGSLRLSCAASGSIFSSYAMGWSRQAPGKEREFVAAISTGGRTYYADSVKGRFTISRDNAKNTVYLQMNSLKPEDTAVYYCAADGPLPHKVGTHTLDYWGQGTQVTVSS” was “low polyreactivity”; that for “QVQLVESGGGLVQAGGSLRLSCAASGSIFSSYAMGWYRPAPWKESELVAAITYNGGSTFYADSVKGRFTISRDNAKNTVYLPMYCLKPVDTAVYYCAAEYVGYYVYTWLYDYWGQGTQVTVSS” was “high polyreactivity”; that for “QVQLVESGGGLVQAGGSLRLSCAASGSIFSSYAMGWYRQAPGKERELVAAISGGGNTYYADSVKGRFTISRDNAKNTVYLQMNSLKPEDTAVYYCATDTYDPFHIEDDYWGQGTQVTVSS” was “low polyreactivity”. Under “QVQLVESGGGLVQAGGSLRLSCAASGSIFSSYAMGWYRQAPGKERELVAAISSSGDSTYADSVKGRFTISRDNAKNTVYLQMISLKPEDTAGYYCAVGGAGSDDYWGQGTQVTVSS” stands “low polyreactivity”. Under “QVQLVESGGGLVQAGGSLRLSCAASGSIFSSYAMGWYRQAPGKERELVAAITSGGSTYYADSVKGRFTISRDNAKNNVYLQMNSLKPEDTAVYYCAARQVRTSKLHMGYWGQGTQVTVSS” stands “low polyreactivity”; under “QVQLVESGGGLVQAGGSLRLSCAASGSIFSSYAMGWYRQAPGKERELVASISRRGGSTYYADSVKGRFTISRDKAKNTVYLQMNSLKPEDTAVYYCTASGGPYRYYYWGQGTQVTVSS”, “low polyreactivity”. Regarding “QVQLVESGGGLVQAGGSLRLSCAASGSIFSSYAMVWYRQAPGKERELVAAIDGSGGSTYADSVKGRFTISRDHAKNTVYLQMNSLKPEDTAVYYCAADSYSGRYYWWEYDYWGQGTQVTVSS”, the “polyreactivity (PSR sort gate)” value is on record as “low polyreactivity”. The value for “QVQLVESGGGLVQAGGSLRLSCAASGSIFSSYVMGWYRQAPGKERELVAAMSRSGGSTYYADSVKGRFTISRDNAKNTVYLQMNSLKPEDTAVYYCAADWTRGSPGMDYWGQGTQVTVSS” was “high polyreactivity”. Under “QVQLVESGGGLVQAGGSLRLSCAASGSIFSTNALGWYRQAPGKERELVAGITRSGGRTYYADSVKGRFTISRDTAKNTVYLQMNSLKPEDTAVYYCTAVRPHRYYSWGQGSQVTVSS” stands “high polyreactivity”; under “QVQLVESGGGLVQAGGSLRLSCAASGSIFSTNAMGWYRQAPGKERELVAGISSDDSTYADSVKGRFTISRDNAKNTVYLQMNSLKQADTAVYYCAAEDNWYNVGYYYWGQGTQVTVSS”, “low polyreactivity”; under “QVQLVESGGGLVQAGGSLRLSCAASGSIFSTYAMGWYRQAPGKERELVAAISQGGSSTYYADSVKGRFTISRDIAKNTVYLQMKSLKAEDTAVYYCAKFPYLKFGYDYWGQCTQVTVSS”, “high polyreactivity”. The value for “QVQLVESGGGLVQAGGSLRLSCAASGSIFSTYAMGWYRQAPGKERELVAAISVSGSSTYYADSVKGRFTISRDNAKNTVYLQMNSLKPEDTAVYYCAADVPYGASIISYDYWGQGTQVTVSS” was “low polyreactivity”; that for “QVQLVESGGGLVQAGGSLRLSCAASGSIFSTYAMGWYRQAPGKERELVATIRRGGSTYYADSVKGRFTISRDNAKNTVYLQMNSLKPEDTAVYYCAATVSSYPYYRYYSWGQGTQVNVSS” was “high polyreactivity”.

On to “QVQLVESGGGLVQAGGSLRLSCAASGSIFSTYVMGWYRQAPGKERELVAAISRRGGSTYYADSVKGRFTISRDNAKNTVYLQMNSLKPEDTAVYYCAARGQFRYSFGDYSWGQGTQVTVSS”, for which the “polyreactivity (PSR sort gate)” value is “high polyreactivity”. The value for “QVQLVESGGGLVQAGGSLRLSCAASGSIFSVNDMGWYRQAPGKERELVAAISSGGSTNYADSVKGRFTISRDNAKNTVSLQMNSLKPEDTAVYYCNTVVRGWSSSAYDYWGQGTQVTVSS” was “low polyreactivity”.

For the origin of these results see the nanobody polyreactivity screen of Harvey et al. (2022).
